Data set [1] deals with T1, monomeric C-reactive protein (mCRP) (Homo sapiens, UniProt P02741 P02741:19-224).
T1 sequence: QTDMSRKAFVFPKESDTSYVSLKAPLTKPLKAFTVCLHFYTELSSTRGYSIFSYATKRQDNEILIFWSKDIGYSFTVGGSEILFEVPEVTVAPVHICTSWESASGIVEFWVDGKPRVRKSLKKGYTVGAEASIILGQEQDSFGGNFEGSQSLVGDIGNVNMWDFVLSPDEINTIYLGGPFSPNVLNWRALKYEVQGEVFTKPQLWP
In words: SPR; 200 nM aptamer; 75 mM HEPES, 0.15 M NaCl pH 7.4. The protocol:
Regeneration of the CM4 chip flow cells was achieved by applying 10 mM NaOH with 120 sec followed by several washing steps with 1× aptamer binding buffer. SPR binding concentrations were obtained as a resonance unit RU (1 RU=1 pg/mm² of the sensor surface) by calculating the binding units of antibody/aptamer and mCRP and correcting for the background signal observed in the reference channel.
In general terms: SPR reads the build-up and loss of mass on a sensor chip optically.

The target of data set [2] is T1, monomeric C-reactive protein (mCRP). In words: SPR; mCRP immobilized on CM4, pCRP reference cell; 1:1 Langmuir; ka 4.242E+03 1/Ms, kd 6.41E-04 1/s; aptamer binding buffer pH 7.4. Here is the method:
On the contrary the aptamer was very stable regeneration steps and therefore a multicycle kinetics analysis was performed for the evaluation of reaction kinetics of the aptamer. Pentameric CRP is immobilized in the reference flow cell and mCRP in the active cell at a low immobilization level (70 RU) to achieve an optimal kinetic analysis on CM4 biosensor chips. The kinetic analysis was performed with increasing concentrations of aptamer AmC2 (0-500 nM) applying for 200 sec of association and 200 sec dissociation at flow rate of 300 μl/min. A regeneration step of 120 sec using 1 M NaOH was applied between the injections of different concentrations. The Biacore evaluation software was used in the analysis for estimation of affinity rate constant by fitting the obtained binding sensogram using standard mathematical 1:1 Langmuir model.
The kinetic parameters of the antibody 3H12 and aptamer AmC2 were evaluated using the inbuilt kinetics modules of the Biacore T200 SPR (FIG. 2). […] The strength of the binding interaction between the ligand and target analyte can be measured based on the affinity constant value KD. […] The binding kinetics of the ligand to the target analyte is a time dependent interaction and in SPR this is measured as the association and dissociation constants (ka and kd). […]

As usually defined, the Kd is the concentration at which binding is half-saturated. Read a high Kd as a looser complex.

B1: AmC4 (ssDNA)
DNA: GCACCAGCATATTCGATTGGGAGGTGTGAACGTTATGTGGTAGAGAGATGGGTGGTGGGGCTAGTAGGTGCATCAG
Take B1: in data set [1], the binding result was “binds”.

B2: AmC3 (ssDNA)
DNA: GCACCAGCATATTCGATTGGGAGCGCGGGGGAGAGTAGTGGGGAACGGTGGAGAGTTGGGCTAGTAGGTGCATCAG
Regarding B2, in data set [1], the binding result is given as “binds”.

B3: AmC2 (ssDNA)
DNA: GCACCAGCATATTCGATTGTGGCGGGTTGTGAAGGGTGGAGTATGGTCGTGTTGGTTGGGCTAGTAGGTGCATCAG
The molecule B3 had an equilibrium dissociation constant (Kd) in data set [2] of 151 nM.

Source of the values: US20240036057A1, “DNA APTAMERS FOR THE DETECTION OF MONOMERIC CRP” (Universiteit Hasselt, published 2024).
